Test results published in publication PMC5523955.

Target: NCP^H2AK15ub (nucleosome core particle with linked H2A-H2B enzymatically ubiquitylated at H2A Lys15) (human) (UniProt P0CG47)
Test: ITC

For “RAD18 (aa 198-240) (from UniProt Q9NS91 198-240) (domain or fragment)”, the Kd was 25.2 nM.
